Experimental findings from patent US20210261685A1 (Alector, published 2021) are described below.

Test in all cases: SPR, Carterra LSA, antibody immobilised
For orientation: Surface plasmon resonance follows binding to a sensor surface in real time, without labels.

The target of test [1] is T1, cyno MerTK extracellular domain (ECD), recombinant (cynomolgus monkey, UniProt Q12866 21-505 (human entry)).
T1 construct: also called cynomolgus MerTK; not shown: polyHis tag or TEVS/Thrombin/murine IgG2a Fc tag
T1 chain: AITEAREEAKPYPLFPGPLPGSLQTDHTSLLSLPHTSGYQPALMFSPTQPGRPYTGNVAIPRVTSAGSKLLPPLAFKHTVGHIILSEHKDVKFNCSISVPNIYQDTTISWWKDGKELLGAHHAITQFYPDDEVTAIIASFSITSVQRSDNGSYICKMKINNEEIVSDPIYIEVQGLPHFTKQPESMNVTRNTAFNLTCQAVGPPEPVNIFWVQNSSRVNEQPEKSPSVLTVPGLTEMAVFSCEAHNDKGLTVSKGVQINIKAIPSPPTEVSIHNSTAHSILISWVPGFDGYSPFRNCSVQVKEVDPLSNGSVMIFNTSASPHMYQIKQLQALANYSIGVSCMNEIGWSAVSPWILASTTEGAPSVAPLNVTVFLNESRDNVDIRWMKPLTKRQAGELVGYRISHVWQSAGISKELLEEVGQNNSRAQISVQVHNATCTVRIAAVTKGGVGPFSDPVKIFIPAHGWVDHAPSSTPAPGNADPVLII
An outline of the steps:
(§1)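 Anti-MerTK antibodies diluted to 10 μg/ml in 10 mM Acetate, pH 4.25 were amine-coupled in a 96-spot array onto an HC200M chip activated with MES/sulfo-NHS/EDC, then blocked with 1M Ethanolamine pH 8.5. On a Carterra LSA, recombinant MerTK extracellular domain was injected at 33.3, 100, and 300 nM in HBS-TE with 0.5 mg/ml BSA, lowest to highest without regeneration. KD came from fitted k-on and k-off.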

For test [2], the target named is T2, murine MerTK extracellular domain (ECD), recombinant (mouse, UniProt Q60805 19-497).
T2 construct: also called moMerTK; mouse MerTK; not shown: polyHis tag or TEVS/Thrombin/murine IgG2a Fc tag
T2 sequence: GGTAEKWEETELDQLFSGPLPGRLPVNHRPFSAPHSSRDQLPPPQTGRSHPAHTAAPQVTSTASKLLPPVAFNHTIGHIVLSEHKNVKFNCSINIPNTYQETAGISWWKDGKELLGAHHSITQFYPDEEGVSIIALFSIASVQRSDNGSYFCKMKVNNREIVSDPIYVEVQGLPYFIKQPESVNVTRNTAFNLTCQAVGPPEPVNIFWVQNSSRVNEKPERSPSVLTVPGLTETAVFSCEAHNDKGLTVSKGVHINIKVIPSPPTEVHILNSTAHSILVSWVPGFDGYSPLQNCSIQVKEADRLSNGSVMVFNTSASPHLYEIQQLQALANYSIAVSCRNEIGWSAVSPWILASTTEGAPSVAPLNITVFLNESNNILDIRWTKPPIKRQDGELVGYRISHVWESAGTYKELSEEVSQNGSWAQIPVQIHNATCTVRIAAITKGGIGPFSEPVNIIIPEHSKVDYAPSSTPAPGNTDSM
An outline of the steps:
as §1

The target in test [3] is T3, human MerTK extracellular domain (ECD), recombinant (human, UniProt Q12866 21-505).
T3 construct: also called huMerTK; not shown: polyHis tag or TEVS/Thrombin/murine IgG2a Fc tag
T3 sequence: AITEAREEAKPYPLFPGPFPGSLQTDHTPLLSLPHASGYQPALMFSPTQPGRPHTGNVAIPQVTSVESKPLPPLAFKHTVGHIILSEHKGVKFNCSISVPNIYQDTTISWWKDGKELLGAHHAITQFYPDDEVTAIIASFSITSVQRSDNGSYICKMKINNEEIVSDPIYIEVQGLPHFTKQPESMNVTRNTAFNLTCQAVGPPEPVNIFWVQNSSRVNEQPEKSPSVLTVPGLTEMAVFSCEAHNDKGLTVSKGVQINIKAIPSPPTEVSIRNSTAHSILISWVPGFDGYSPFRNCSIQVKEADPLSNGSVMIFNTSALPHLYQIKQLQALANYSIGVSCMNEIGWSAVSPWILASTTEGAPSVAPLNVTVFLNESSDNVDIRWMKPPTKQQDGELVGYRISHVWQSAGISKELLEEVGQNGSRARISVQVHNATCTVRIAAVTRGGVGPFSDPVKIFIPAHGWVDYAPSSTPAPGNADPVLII
In outline:
as §1

B1: MTK-35 (antibody, human IgG1, V domains shown)
VH: QVLLQQSGPELVKPGASVQLSCKASDYTFTSYDIHWVKQRPGQGLEWIGWIYPRDGYTKYNEIFKGKATLTVDTSSTTAYMELHSLTSEDSAVYFCARAYYTNWYYFDYWGQGTTLTVSS
VL: EIVLTQSPTTMAASPGEKITITCRASSSISSHYLHWYQQKPGFSPKLLIYRTSNLASGVPARFSGSGSGTSYSLTIGTMEAEDVATYYCQQGSTIPLTFGAGTKLVLK
Consider B1, for which the dissociation constant Kd (in general, the free concentration of one partner at which half of the binding sites on the other are occupied at equilibrium, for simple one-to-one binding) in test [1] turned out to be 13 nM; in test [3] it was 14 nM. Further, the binding result in test [2] was “no binding (tested: 300 nM)”.

B2: MTK-32 (antibody, human IgG1, V domains shown)
VH: QIQLVQSGPELKKPGETVKISCKASGYTFTSYGMSWVHQAPGKGLKWLGWINTYSGVPTYADDFRGRFAFSLDTSVSTASLEINNLQNEDTATYFCAREDNWAWFAYWGQGTLVTVST
VL: QIVLSQSPAILSASPGEKVTMTCRATSSVGYMHWYQRKPGSSPKPWIYATSNLASGVPARFSGSGSGTSYSLTISRVEAEDAATYYCQQWSSNPRTFGGGTKLEIK
B2: the dissociation constant Kd turned out to be 107 nM in test [1], 186 nM in test [2] and 59 nM in test [3].

B3: MTK-08 (antibody, human IgG1, V domains shown)
VH: QIQLVQSGPELKKPGETVKISCKASGYTFTNYGMNWVKQAPGKGLKWMGWINTYTGEPTYADDFKGRFAFSLETSASTAYLQINNLKNEDTATYFCAREVRYWYFDVWGAGTTVTVSS
VL: QIVLSQSPAILSASPGEKVTMTCRATSSVSYMHWFQQKPGSSPKPWIYATSNLASGVPARFSGSGSGTSYSLTISRVEAEDAAAYYCQHWSGNPRTFGGGTKLEIK
In the case of B3, the equilibrium dissociation constant (Kd) was 42 nM in test [1] and 37 nM in test [3]. For the same molecule, the binding result in test [2] is recorded as “no binding (tested: 300 nM)”.

B4: MTK-36 (antibody, human IgG1, V domains shown)
VH: QVTLKESGPGILQPSQTLSLTCSFSGFSLSTFGMGVGWIRQPSGKGLEWLAHIWWYDDKYYEPALKSRLTISKDSSKNQVFLKIANVDTADTATYYCARIYYGTSYRYFDVWGTGTTVTVSS
VL: QIVLSQSPAILSAFPGEKVTMTCRATSSVRYMHWYQQKPGSSPKPWIYATYNLTSGVPARFSGSGSGTSYSLTISRVEAEDAATYYCHQWSSNPYTFGGGTKLEIK
With B4, the figures for the equilibrium dissociation constant (Kd) in test [1] and in test [3] were 5.9 nM and 6.4 nM, respectively. For the same molecule, the binding result in test [2] is recorded as “no binding (tested: 300 nM)”.

B5: MTK-14 (antibody, human IgG1, V domains shown)
VH: QIQLVQSGPELKKPGETVKISCKASGYTFTNYGMNWVKQAPGKDLQWMGWINTYTGEPTYADDFTGRFAFSLETSASTAYLQINNLKNEDTATYFCAKGGHYAWFAYWGQGTLVTVSA
VL: QIVLSQSPAILSASPGEKVTMTCRSSSSVSYMHWYQQKPGSSPKPWIYATSNLASGVPGRFSGSGSGTSYSLTISRVEAEDAATYYCQQWGSNPRTFGGGTKLEIK
Turning to B5, the Kd in test [1] stood at 53 nM; in test [3], 45 nM. Moreover, the binding result in test [2] is reported as “no binding (tested: 300 nM)”.

B6: MTK-02 (antibody, human IgG1, V domains shown)
VH: QIQLVQSGPELKQPGETVKISCKASGYTFTDYGVNWVKQAPGKGLKWMGWINTYSGEPTYAGDFKGRFAFSLESSASTAFLQINNLKNEDMATYFCARRVRYWYFDVWGAGTSVTVSS
VL: QIVLSQSPAILSASPGERVTMTCRANSSVSYMHWYQQKPGSSPKPWIYATSNLASGVPARFSASGSGTSYSLTVSRVEAEDAATYYCQQWGSNPFTFGSGTKLEIK
Turning to B6, the results for the Kd in test [1] and in test [3] were 24 nM and 22 nM, respectively. Also, the binding result in test [2] was “no binding (tested: 300 nM)”.
